Results from paper PMC8278322 (Cancer research, 2020).

Target: T1, Gal4-fused SMAD4 (UniProt Q13485 1-552)
T1 sequence (looked up): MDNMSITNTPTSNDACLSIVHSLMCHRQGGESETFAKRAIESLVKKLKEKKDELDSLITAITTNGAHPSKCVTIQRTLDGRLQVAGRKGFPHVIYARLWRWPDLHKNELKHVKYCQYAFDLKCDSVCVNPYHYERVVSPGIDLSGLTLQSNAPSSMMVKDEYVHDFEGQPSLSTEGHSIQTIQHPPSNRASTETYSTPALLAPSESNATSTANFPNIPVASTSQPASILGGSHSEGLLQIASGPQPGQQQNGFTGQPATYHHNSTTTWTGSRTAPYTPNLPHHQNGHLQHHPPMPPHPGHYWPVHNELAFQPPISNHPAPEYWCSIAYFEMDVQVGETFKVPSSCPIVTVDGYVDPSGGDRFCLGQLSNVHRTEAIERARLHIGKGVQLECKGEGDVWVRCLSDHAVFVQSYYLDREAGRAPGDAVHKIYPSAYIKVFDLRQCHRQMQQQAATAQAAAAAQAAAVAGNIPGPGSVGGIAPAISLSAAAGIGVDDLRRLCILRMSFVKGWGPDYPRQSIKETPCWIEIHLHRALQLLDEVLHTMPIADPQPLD
Test: two-hybrid

fold luciferase activity against pVP16-fused wildtype FOXL2: ~20 fold
B1: pVP16-fused FOXL2^C134W (natural protein, human, UniProt P58012 1-376, looked up)
chain: MMASYPEPEDAAGALLAPETGRTVKEPEGPPPSPGKGGGGGGGTAPEKPDPAQKPPYSYVALIAMAIRESAEKRLTLSGIYQYIIAKFPFYEKNKKGWQNSIRHNLSLNECFIKVPREGGGERKGNYWTLDPAWEDMFEKGNYRRRRRMKRPFRPPPAHFQPGKGLFGAGGAAGGCGVAGAGADGYGYLAPPKYLQSGFLNNSWPLPQPPSPMPYASCQMAAAAAAAAAAAAAAGPGSPGAAAVVKGLAGPAASYGPYTRVQSMALPPGVVNSYNGLGGPPAAPPPPPHPHPHPHAHHLHAAAAPPPAPPHHGAAAPPPGQLSPASPATAAPPAPAPTSAPGLQFACARQPELAMMHCSYWDHDSKTGALHSRLDL
